B1: MMP1 (parent)
chain: MFFKDRFYMRTNPFYPEVELNFIS

Variants of: B1
Experiment: protein stability index of a GFP-peptide fusion (GPS, HEK-293T) (PSI 1-6); higher = more stable
Settings: c terminus: a fixed tail appended
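Note: lentivirally expressed fusions sorted by FACS into six bins by GFP to DsRed ratio, PSI derived from sequencing read proportions per bin multiplied by bin number.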

Protein stability index, by site and new letter:
R10: T 2.47 | A 1.52 | E 2.37 | C 3.2 | Q 2.17 | Y 2.63 | S 3.42 | K 2.74 | W 2.82 | H 2.42 | V 3 | M 2.88 | N 3.09 | P 2.77 | L 2.79 | G 2.73 | D 2.14
N12: P 3.4 | K 3.17 | V 2.43 | I 2 | R 3.81 | Q 2.67 | E 4.11 | W 3 | Y 3.12 | D 3.11 | S 2.74 | H 2.87 | C 3.02 | M 2.94 | G 2.91 | F 3.09 | T 2.56 | L 2.51
E19: N 3.6 | W 1.3 | S 2.61 | G 3.69 | I 3.25 | H 3.47 | V 2.27 | M 1.47 | D 2.34 | L 2.64 | Q 2.3 | T 2.44 | K 4.43 | P 3.53 | Y 3.1 | A 3.48 | C 3.18 | F 3.27
I23: D 2.65 | C 2.81 | A 2.47 | E 2.33
T11: L 2.72 | H 1.78 | A 3.18 | W 3.68 | M 3.47 | D 3.5 | P 3.77 | I 1.63 | N 2.96 | R 2.28 | K 3.17 | C 3.79 | G 2.64 | Q 2.59 | E 3.11 | S 2.32 | V 4.1
M9: E 1.93 | G 3.71 | P 1.93 | C 3.4 | V 2.71 | R 2.1 | I 2.02 | T 2.76 | L 1.86 | S 3.67 | W 3.91 | Q 2.65 | K 2.59 | H 1.83 | D 1.75 | F 2.56 | Y 3.12 | A 1.27
K4: P 2.5 | R 2.56 | G 1.72 | M 2.3 | I 3.25 | N 2.26 | H 3.26 | F 3.7 | V 1.49 | Y 3.55 | W 2.11 | Q 4.05 | S 3.15
N21: Y 3.15 | P 2.26 | G 4.41 | F 2.33 | R 2.74 | W 2.85 | T 3.97 | K 1.96 | I 3.34 | M 1.94 | S 2.91 | C 3.71 | V 2.67 | Q 3.29 | L 3 | A 2.56 | D 3.07 | H 2.76
L20: E 3.27 | Q 1.36 | K 3.34 | T 1.85 | W 3.09 | V 2.11 | N 2.06 | F 3.19 | G 1.59 | H 2.98 | S 2.35 | P 1.99 | R 2.25 | C 3.04 | I 3.27 | A 2.27 | D 2.28
D5: Q 3.19 | A 2.8 | E 2.63 | H 2.78 | I 2.52 | L 2.49 | M 2.63 | W 1.94 | N 2.77 | C 3.75 | V 2.6 | P 3.51 | S 2.64 | Y 2.38 | G 3.47 | T 3.47
F7: P 3.98 | L 3.36 | C 2.32 | E 3.35 | M 2.98 | N 1.31 | H 2.13 | Y 1.96 | Q 2.06 | K 2.45 | R 3.28 | V 4.52 | A 3.4 | W 3.2 | D 1.91
R6: K 3.46 | H 3.05 | I 3.27 | E 2.85 | L 2.39 | S 2.64 | M 2.35 | V 3.16 | F 2.48 | N 2.96 | W 2.14 | T 3.77 | C 2.09 | Y 3.35 | G 3.07 | Q 3.4
F14: H 2.82 | A 3.69 | Y 2.96 | K 3.31 | E 3.46 | R 3.1 | C 2.65 | L 2.62 | D 3.86 | N 2.87 | T 2.33 | M 1.73 | V 3.62 | Q 2.58 | G 2.92 | I 2.54
Y8: A 2.69 | E 1.89 | C 3.33 | Q 2.87 | W 2.96 | K 1.99 | R 2.98 | V 3.2 | M 2.89 | P 2.98 | F 2.64 | T 2.23 | G 2.07 | D 2.43 | N 2.17 | I 2.73 | S 3.33 | H 2.22
F3: V 2.82 | Y 2.97 | T 2.11 | W 3.61
V18: T 3.87 | P 3.06 | A 3.25 | I 2.84 | L 2.41 | G 2.08 | H 3.06 | R 1.87 | F 2.61 | C 2.99 | E 3.27 | S 3.28 | Y 2.64 | W 3.22 | D 2.66 | M 2.52 | K 3.54 | Q 2.35 | N 1.78
Y15: M 1.97 | V 2.37 | D 3.35 | L 3.33 | A 1.72 | R 2.66 | G 2.09 | T 2.43 | N 2.94 | Q 1.34 | F 2.63 | W 2.93 | S 2.69 | C 3.47 | E 2.15 | P 2.4 | H 2.19 | I 3.09 | K 2.72
P13: W 3.9 | V 3.62 | Q 1.76 | I 2.85 | Y 2.35 | S 1.94 | N 2.29 | R 3.31 | L 2.37 | D 3.62 | C 2.68 | H 2.46 | M 2.66 | K 2.58 | A 2.38 | G 2.62
P16: G 3.15 | D 2.18 | Q 3.75 | M 1.74 | C 2.71 | Y 2.82 | I 3.59 | K 2.25 | N 3.95 | R 1.98 | L 1.75 | H 2.95 | W 2.44 | T 3.07 | F 2.88 | V 3.21 | E 3.49 | S 2.96
F22: G 2.22 | L 3.27 | D 1.31 | W 2.09 | Q 1.9 | R 2.69 | I 3.29 | A 2.48 | V 2.92 | K 1.83 | P 2.18 | N 2.15 | S 1.67 | T 1.65 | Y 2.94 | H 2.16 | M 2.32 | C 2.19 | E 2.38
E17: I 3.71 | R 2.57 | G 2.52 | V 2.99 | N 3.69 | M 2.78 | S 2.15 | P 1.8 | T 1.84 | A 2.9 | F 2.19 | C 4.42 | W 3.19 | H 3.02 | L 2.55 | D 1.97 | Y 2.42 | K 2.21
